Reference: patent publication US20070104719A1, “Caspase Activated Prodrugs Therapy” (Genentech, Inc., priority 2000, published 2007)
Starred links: 1 amine or outer side, 2 acyl side, 3 side chain; linkers in the order of their positions; H or OH if unused. Non-standard residues stand in square brackets, D forms with d. Residues, ends and D or L forms follow the SMILES beside them. *: point of attachment. Doxorubicin(3'-N) = COc1cccc2c1C(=O)c1c(O)c3c(c(O)c1C2=O)C[C@@](O)(C(=O)CO)C[C@@H]3O[C@H]1C[C@H](N*)[C@H](O)[C@H](C)O1; PABC = O=C(OCc1ccc(N[*:1])cc1)[*:2]

Assays:
[1] = biological target: T1, recombinant human caspase 3 (Homo sapiens, UniProt P42574); experiment: Activation of Ac-DEVD-PABC-taxol by caspase 3 (HPLC); assay type: biochemical
T1 construct: purchased Calbiochem
T1 sequence (P42574 29-175 limits assumed): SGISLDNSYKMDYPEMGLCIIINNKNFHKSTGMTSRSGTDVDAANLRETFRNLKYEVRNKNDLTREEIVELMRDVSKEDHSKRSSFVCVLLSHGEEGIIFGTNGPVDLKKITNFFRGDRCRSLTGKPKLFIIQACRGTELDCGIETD
T1 sequence (P42574 176-277 limits assumed): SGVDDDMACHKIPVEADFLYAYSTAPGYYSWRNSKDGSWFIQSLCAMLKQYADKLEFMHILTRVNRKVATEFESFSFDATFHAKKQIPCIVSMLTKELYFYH
Experimental: Ac-DEVD-PABC-taxol (35 μM) was incubated with 1 ng recombinant human caspase 3 (Calbiochem) in the presence or absence of the caspase 3 inhibitor, Z-DEVD-FMK (400 μM) (Calbiochem) in phosphate-buffered saline containing 5% (v/v) dimethyl sulfoxide and 45 mM DTT in a total reaction volume of 700 μL. A control reaction was performed in which caspase 3 and inhibitor were omitted. Reactions were incubated for 0 to 2 h at 37° C. and then frozen in dry ice. Reactions were then analyzed by reverse phase HPLC using a Microsorb-MV C18 reverse-phase column (4.6 mm internal diameter×250 mm length, 5 μm particle size, 100 Å pore size) (Rainin) under isocratic conditions. 0.1% (v/v) TFA, 46% (v/v) acetonitrile at a now rate of 1.5 mL/min whilst monitoring the absorbance at 254 nm. The retention times for taxol and Ac-DEVD-PABC-taxol were 13.3 min 10.4 min, respectively.

[2] = test system: MCF7 breast carcinoma cells; experiment: Cellular accumulation of doxorubicin and Ac-DEVD-PABC-doxorubicin (fluorescence); assay type: cell-based, human; conditions: 10 μM, 0 to 2 h at 37° C.
Experimental: (§1) FIG. 1. Cellular accumulation of caspase cleavable prodrug Ac-DEVD-PABC-Doxorubicin in SK-BR-3 and MCF7 cells. Uptake of doxorubicin was estimated from a standard curve prepared using known quantities of doxorubicin that were added to the previously untreated cells.
(§2) SK-BR-3 and MCF7 breast carcinoma cells (American Type Culture Collection (ATCC), Rockville, Md.) were cultured in Dulbecco's modified Eagle's medium:Ham's nutrient F-12 (50:50) supplemented with […] glutamine, 100 units/mL penicillin, […] streptomycin (Gibco BRL, Grand Island, N.Y.), and 10% (w/v) bovine fetal serum (Hyclone, Logan, Utah) (cell media) at 37° C., 5% CO2. Adherantly growing cells were detached by treatment with phosphate-buffered saline containing 0.05% trypsin, 0.6 mM EDTA (5 min) and then resuspended at 10^6 cells per mL in fresh cell media. Cells were either used directly (“untreated”) or supplemented with doxorubicin or Ac-DEVD-PABC-doxorubicin into a final concentration of 10 μM. […] Fluorescence measurements were then undertaken using a fluorescent plate reader (Fluoroskan, Helsinki, Finland) with absorption and emission wavelengths of 485 and 590 nm respectively. Uptake of doxorubicin was estimated from a standard curve prepared using known quantities of doxorubicin that were added to the previously untreated cells.

[3] = test system: SK-BR-3 breast carcinoma cells; experiment: as above; assay type: cell-based, human; conditions: SK-BR-3 cells, 10 μM, 0 to 2 h at 37° C.
Experimental: as §1, §2

[4] = biological target: granzyme B (Homo sapiens, UniProt P10144); experiment: Cleavage of Ac-DEVD-pna by granzyme B; assay type: biochemical
granzyme B, sequence (P10144 21-247, species assumed): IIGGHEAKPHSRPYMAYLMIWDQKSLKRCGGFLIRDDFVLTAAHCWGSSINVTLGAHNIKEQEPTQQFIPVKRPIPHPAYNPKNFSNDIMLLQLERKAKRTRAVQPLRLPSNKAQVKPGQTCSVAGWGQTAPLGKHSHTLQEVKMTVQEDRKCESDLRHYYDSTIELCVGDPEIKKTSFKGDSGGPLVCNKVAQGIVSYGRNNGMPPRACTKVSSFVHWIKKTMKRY
Text: (§3) The most favorable substrates for caspases 2, 3 and 7 are DEHD (SEQ ID NO:8), DEVD (SEQ ID NO:3) and DEVD (SEQ ID NO:3) respectively. These sequences are very poor substrates for granzyme B which has the preferred substrate IEPD (SEQ ID NO:13) (Thornberry et al., (1997) supra) and for proinflammatory caspases (caspases 1, 4, 5, 11, 12, 13) which have a preference for a large hydrophobic residue at S4 (caspase 1 WEHD (SEQ ID NO:6), caspase 4 (W/L)EHD, caspase 5 (W/L)EHD).

[5] = biological target: T2, recombinant commercial caspase 3 (Homo sapiens, UniProt P42574); experiment: Hydrolysis of Ac-DEVD-pna by caspase 3; assay type: biochemical
T2 construct: purchased
T2 sequence (P42574 29-175 limits assumed): T1 sequence (P42574 29-175 limits assumed)
T2 sequence (P42574 176-277 limits assumed): T1 sequence (P42574 176-277 limits assumed)
Text: as §3

For “Ac-DEVD-PABC-paclitaxel [Ac-DEVD-PABC-taxol]”, the “activation by caspase 3 (conversion to taxol)” value ([1]; 35 μM prodrug, 1 ng caspase 3) was “efficiently activated”, the “Conversion (%)” value ([1]; Caspase 3 + inhibitor (Z-DEVD-FMK 400 μM), incubation time 0 min) was 0% and the “Conversion (%)” value ([1]; Caspase 3 + inhibitor (Z-DEVD-FMK 400 μM), incubation time 30 min) was 0%. For the same compound, the “Conversion (%)” value ([1]; Caspase 3 + inhibitor (Z-DEVD-FMK 400 μM), incubation time 120 min) was 0%, the “Conversion (%)” value ([1]; Caspase 3, incubation time 0 min) was 0% and the “Conversion (%)” value ([1]; Caspase 3, incubation time 30 min) was 65%. The “Conversion (%)” value ([1]; Caspase 3, incubation time 120 min) was 100%.

`COc1cccc2c1C(=O)c1c(O)c3c(c(O)c1C2=O)C[C@@](O)(C(=O)CO)C[C@@H]3O[C@H]1C[C@H](NC(=O)OCc2ccc(NC(=O)[C@H](CC(=O)O)NC(=O)[C@@H](NC(=O)[C@H](CCC(=O)O)NC(=O)[C@H](CC(=O)O)NC(C)=O)C(C)C)cc2)[C@H](O)[C@H](C)O1` [Ac-DEVD-PABC-Doxorubicin, Ac-DEVD-PABC-doxorubicin] (Ac-DEVD[PABC]-{Doxorubicin(3'-N)}) was tested, and the accumulation inside cells [2] was “did not” and the accumulation inside cells [3] was “did not”.

“acetyl-L-Asp-L-Glu-L-Val-L-Asp-p-nitroanilide [Ac-DEVD-pna]” was tested, and the “cleavage by granzyme B” value [4] was “no detectable cleavage” and the “hydrolysis by caspase 3” value [5] was “readily hydrolyzed”.
